Reference: patent US20170166631A1 (published 2017)
Read-outs that look alike come from different tables or passages of the source.

Assays:
Experiment in all cases: ELISA
[1] = biological target: T1, HD49 (huntingtin exon 1 protein with 49 polyQ repeats after cleavage of the GST tag; aggregation reaction) (human, UniProt P42858 1-88)
T1 chain: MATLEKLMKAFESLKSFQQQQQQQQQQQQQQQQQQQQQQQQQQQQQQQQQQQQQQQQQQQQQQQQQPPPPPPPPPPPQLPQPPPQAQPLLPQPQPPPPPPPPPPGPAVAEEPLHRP

[2] = biological target: T2, HD21 (huntingtin exon 1 protein with 21 polyQ repeats after cleavage of the GST tag; aggregation reaction) (human, UniProt P42858 1-88)
T2 chain: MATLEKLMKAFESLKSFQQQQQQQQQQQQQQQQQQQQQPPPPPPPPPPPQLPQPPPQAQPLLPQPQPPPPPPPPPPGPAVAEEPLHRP

[3] = biological target: T3, GST-HttExon1Q21 (recombinant huntingtin exon 1 protein with 21 polyQ repeats fused to an N-terminal GST tag) (;human, UniProt P08515 1-218 = GST; P42858 1-88)
[4] = biological target: T1, HD49 (huntingtin exon 1 protein with 49 …)
[5] = biological target: T2, HD21 (huntingtin exon 1 protein with 21 …)
[6] = biological target: T3, GST-HttExon1Q21 (recombinant huntingtin …); remark: listed apart in the source
Target sequence in this assay (P08515 1-218, tags or fused parts left off): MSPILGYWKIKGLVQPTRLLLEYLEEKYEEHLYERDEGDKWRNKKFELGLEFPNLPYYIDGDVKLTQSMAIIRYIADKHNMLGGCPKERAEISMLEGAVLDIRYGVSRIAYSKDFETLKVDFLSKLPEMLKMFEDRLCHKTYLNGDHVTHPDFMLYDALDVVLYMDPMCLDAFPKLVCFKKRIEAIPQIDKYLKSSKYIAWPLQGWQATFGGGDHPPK

[7] = biological target: T2, HD21 (huntingtin exon 1 protein with 21 …)
[8] = biological target: T3, GST-HttExon1Q21 (recombinant huntingtin …); remark: listed apart in the source
Target sequence in this assay (P08515 1-218, tags or fused parts left off): as above

[9] = biological target: T2, HD21 (huntingtin exon 1 protein with 21 …)
[10] = biological target: T3, GST-HttExon1Q21 (recombinant huntingtin …); remark: listed apart in the source
[11] = biological target: T1, HD49 (huntingtin exon 1 protein with 49 …)
[12] = biological target: T4, BSA-coupled synthetic peptide of the P-rich domain sequence of huntingtin exon 1 (coupled to BSA)
T4 peptide: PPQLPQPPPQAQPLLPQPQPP

[13] = biological target: T1, HD49 (huntingtin exon 1 protein with 49 …)
[14] = biological target: T2, HD21 (huntingtin exon 1 protein with 21 …)
[15] = biological target: T3, GST-HttExon1Q21 (recombinant huntingtin …); remark: listed apart in the source
[16] = biological target: T5, BSA-coupled synthetic peptide of the polyP repeat sequence of huntingtin exon 1 (coupled to BSA)
T5 peptide: PPPPPPPPPPP

[17] = biological target: T1, HD49 (huntingtin exon 1 protein with 49 …)
[18] = biological target: T2, HD21 (huntingtin exon 1 protein with 21 …)
[19] = biological target: T3, GST-HttExon1Q21 (recombinant huntingtin …); remark: listed apart in the source
[20] = biological target: T6, BSA-coupled synthetic peptide of the 14 C-terminal amino acids of huntingtin exon 1 (coupled to BSA)
T6 peptide: PPGPAVAEEPLHRP

[21] = biological target: T1, HD49 (huntingtin exon 1 protein with 49 …)
[22] = biological target: T2, HD21 (huntingtin exon 1 protein with 21 …)
[23] = biological target: T3, GST-HttExon1Q21 (recombinant huntingtin …); remark: listed apart in the source
[24] = biological target: T1, HD49 (huntingtin exon 1 protein with 49 …)
[25] = biological target: T2, HD21 (huntingtin exon 1 protein with 21 …)
[26] = biological target: T3, GST-HttExon1Q21 (recombinant huntingtin …); remark: listed apart in the source

B1: NI-302.39G12 (antibody, V domains shown)
VH: EVQLVQSGGGLVHPWGSLRLSCAASGFSVSNYAITWVRRAPGKGLQYISVIYRDGRTYYGDSVRGRFTISRDDSKNTLYLQMNSLRFEDTAVYYCARAHGQYYYGVDVWGQGTTVTVSS
VL: DVVMTQSPLSLSVSPGEPASISCRSSQSLLHSNGYNYLDWYRQKPGQSPQLLIYLSSNRPSGVPDRFSASGSGTEFTLQISRVEAEDVGVYYCMQSLQTFTFGGGTKVDIK
B1 gave an EC50 [1] of 28 nM, an EC50 [2] of 15 nM and an EC50 [3] of 3.4 nM. It also gave an EC50 [4] of 28 nM, an EC50 [5] of 15 nM and an EC50 [6] of 3.4 nM.

B2: NI-302.35C1 (antibody, V domains shown)
VH: EVQLVESGGNLVQPGGSLRLSCTASGFTFSITALSWVRQAPEKGPQWVSAITGNAYGTYYADSVKGRFTISRDNAKNTLYLQMNGLRAEDTAIYYCVKGIASDSSGYSAFWGPGTLVTVSS
VL: EIVLTQSPATLSLSPGERATLSCRASQSVDNQFAWYQQKPGQAPRLLIYDASRRAPGIPDRFSGSGSGTDFTLTISSLEPEDFAIYYCQHRYTWLYTFGQGTRLEIK
B2 gave an EC50 [7] of 7.9 nM, an EC50 [8] of 4.6 nM and an EC50 [9] of 7.9 nM. It also gave an EC50 [10] of 4.6 nM.

B3: NI-302.64E5 (antibody, V domains shown)
VH: EVQLVETGGGLVKPGGSLRLSCAASGFTFDQAWMSWVRQVPGKGLEWVGRIKTKTEGEATDYAAPVRGRFTISRDDSEDTVFLQMNSLKTEDTALYYCTSTGVLAAAVDVYWGQGTLVTVSS
VL: DIQLTQSPDSLAVSLGERATMTCKSSQSLFYSYNNENYLAWYQQRPGQPPKLLIYWASTRESGVPDRFSGSGSGTDFTLTISSLQAEDVAVYYCQQYYSTPQTFGQGTKVDIK
For B3, the EC50 [11] was 1.6 nM, the EC50 [12] was 0.1 nM and the EC50 [7] was 0.7 nM. The EC50 [8] was 1.4 nM, the EC50 [13] was 1.6 nM and the EC50 [14] was 0.7 nM. It also gave an EC50 [15] of 1.4 nM.

B4: NI-302.33C11 (antibody, V domains shown)
VH: EVQLVESGGGVVQPGNSLRLSCAASGFRFSDFGMHWVRQAPGKGLEWLALIWYDGGYKYYADSVKGRFTISRDNSKNTMFLQMNSLRAEDTAVYYCATHLEYCSRTTCYLGHWGQGTLVTVSS
VL: DIQLTQSPSFLSASVGDTVTFTCRASQGISDYLAWFQQKPGIAPKLLIYAASTLQTGVPSRFSGSGSGTEFTLTIRSLQSEDFGTYYCQQLKTYPYTFGQGTKVEIK
Work on B4 yielded an EC50 [11] of 0.15 nM, an EC50 [7] of 0.13 nM and an EC50 [8] of 0.11 nM. For the same binder, the EC50 [16] was 0.1 nM, the EC50 [17] was 0.15 nM and the EC50 [18] was 0.13 nM. It also gave an EC50 [19] of 0.11 nM.

B5: NI-302.11A4 (antibody, V domains shown)
VH: EVQLVESGGGLIQPGGSLRLSCAASGFPVSSSYMSWVRQAPGEGLEWVSVLYRDGDTYYADSVQGRFTISRDNSQNTFYLQMNSLKAEDTAVYYCAGDRRSSHYYYGMDVWGQGTTVTVSS
VL: EIVMTQSPGTLSLSPGERATLSCRASQSVSSSYFAWYQQKPGQAPRLLIYGTSRRATAIPDRFSGSGSGTDFTLTISRLEPEDFAVYYCQQYGSSWTFGPGTKVEIK
In the case of B5, the EC50 [1] is reported as 19 nM, the EC50 [2] is reported as 18.2 nM and the EC50 [3] is reported as 1.4 nM. The EC50 [4] was 19 nM, the EC50 [5] was 18 nM and the EC50 [6] was 1.4 nM.

B6: NI-302.72F10 (antibody, V domains shown)
VH: EVQLVETGGGFVQPGGSLRLSCAASGFNFGSYAMSWVRQAPGKGLEWVSDISGIGSNTYYADSVKGRFTISRDNSDNTLYLDMSSLRAEDTARYYCAKDRKRSGWYEQWGQGTLVTVSS
VL: EIVMTQSPATLTLSPGERATLSCRASQSISAYLGWYQQKPGQAPRLLIYDASIRATGIPDRFSGSGSGTDFTLTISSLEPEDSAVYYCHQRSKWPLTFGGGTKVEIK
In the case of B6, the EC50 [11] is reported as 26 nM, the EC50 [7] is reported as 4 nM and the EC50 [20] is reported as 0.1 nM. For the same binder, the EC50 [8] was 10 nM, the EC50 [13] was 26 nM and the EC50 [14] was 4 nM. The EC50 [15] was 10 nM.

B7: NI-302.15E8 (antibody, V domains shown)
VH: EVQLVESGGGLIQPGGSLRLSCAVSGFTVSSYSMNWVRQAPGKGLEWVSYTSSSRSNTKKYADSVKGRFTISRDNARNSLYLQMNSLRDEDTAVYYCARAGDFGELLTGEGYYGMDVWGQGTTVTVSS
VL: SYELTQPPSVSVSPGQTATITCSGDELGDKYVGWYQQKPGQSPLLVIYQDAKRPSGIPERFSGSNSGNTATLTISGTQAMDEADYYCQAWDSGTMVFGGGTRLTVL
B7 gave an EC50 [21] of over 100 nM, an EC50 [22] of over 100 nM and an EC50 [23] of 9.3 nM. It also gave an EC50 [11] of over 100 nM, an EC50 [7] of over 100 nM and an EC50 [8] of 9.3 nM.

B8: NI-302.63F3 (antibody, V domains shown)
VH: QVQLVQSGSAFKKPGTSVKVSCKASGYTFETRSMNWVRQAPGQGLEYMGWINTNTGNRTYVQAFRGRFVFSLDTSVSTAYLQISNLKTEDTAVYYCARGAGGGYWFDSWGQGTLVTVSS
VL: DIQMTQSPDSLAVSLGERATINCKSNQSLFYSSNNNNYLAWYQHKSGQPPKLLVYWGSTRESGVPDRFSGSGSGTDFTLTISSLQAEDVAIYYCHQYYHNPYTFGQGTKLEIK
For B8, the EC50 [24] was 0.4 nM, the EC50 [25] was 0.3 nM and the EC50 [26] was 0.2 nM. The EC50 [11] was 0.4 nM, the EC50 [12] was 0.3 nM and the EC50 [7] was 0.3 nM. For the same binder, the EC50 [8] was 0.2 nM.
